Assay [1] concerns mouse oocytes. Nature of the assay: AURA inhibition in mouse oocytes, NUMA enrichment at spindle poles. Conditions: constitutive treatment, 500 nM; data not shown. It counts as cell-based. The source says: aMTOCs enrich several regulatory kinases at the spindle poles in mouse oocytes (26). The inventors considered that AURA, which is an essential kinase for aMTOC functions (43, 44) and can phosphorylate NUMA (45), negatively regulates NUMA enrichment at microtubule minus-ends in mouse oocytes. […] To confirm that NUMA enrichment is regulated by AURA-dependent phosphorylation, the inventors depleted endogenous NUMA by follicle RNAi (39) and re-expressed NUMA with mutations at the AURA phosphorylation site S1969. […] Together, the inventors infer that AURA phosphorylation negatively regulates NUMA enrichment at microtubule minus-ends in mouse oocytes. All drugs were prepared in DMSO (Sigma-Aldrich) as 1000× stocks. […] Specific parameters used were: 0.1 (for microtubule packing index) or 1.0 (for SD of fluorescence intensity within spindle isosurface) μm for smoothing size, no background subtraction, 500-750 and 1000-1750 μm^3 for minimum and maximum expected total volume of surface object, respectively. SD of fluorescence intensity, volume and volume of the object-oriented minimum bounding box for the spindle isosurface were exported into Excel. Microtubule packing index was calculated by dividing the volume of spindle isosurface by the volume of the object-oriented minimum bounding box. […] Mean fluorescence intensity and volume of isosurfaces were exported into Excel. […]

The subject of assay [2] is KIFC1/HSET-depleted aMTOC-free mouse oocytes. As to the kind of experiment: Rescue of spindle polarity in KIFC1/HSET-depleted aMTOC-free mouse oocytes (human oocyte mimics). It counts as cell-based. The source says: This domain, together with the conserved, microtubule-binding motor domain, allows KIFC1/HSET to organize microtubules via crosslinking and/or sliding (86). To investigate the requirement of different domains in KIFC1/HSET, the inventors expressed a series of truncation mutants in aMTOC-free mouse oocytes (FIG. 7K). […] To examine whether the motor activity is dispensable for the function of KIFC1/HSET in aMTOC-free mouse oocytes, the inventors depleted endogenous KIFC1/HSET by follicle RNAi and restored expression with wild-type HSET or with HSET(N593K), which crosslinks microtubules but cannot slide (87). […] Together, the inventors infer that the appropriate level of KIFC1/HSET's crosslinking and sliding activities are required for proper bipolar spindle assembly in the absence of aMTOCs.
Mouse follicles were microinjected with 3.5 pl of siRNAs at a needle concentration of 2 μM as previously described (11). For rescue experiments, in vitro grown oocytes were microinjected with 3.5 pl of mRNAs. mClover3-HSET mRNA was microinjected at a needle concentration of 275 ng/μl, mClover3-HSET(N593K) mRNA at 275 ng/μl, mClover3-NUMA(S1955D) mRNA at 400 ng/μl, mClover3-NUMA(S1955A) mRNA at 400 ng/μl, mClover3-NUMA(SpM-4A) mRNA at 400 ng/μl, mClover3-NUMA(ΔMTBD1) mRNA at 400 ng/μl and mClover3-NUMA(ΔMTBD2) mRNA at 400 ng/μl. Oocytes were allowed to express the mRNAs for 3-4 h before release.
To obtain mouse MI spindles, oocytes were incubated at 37° C. for around 7 h after released into dbcAMP-free medium. To obtain porcine and bovine MI spindles, oocytes were incubated at 39° C./5% CO2 for around 11 and 12 h, respectively, after released into RO-3306-free medium. To obtain human MI spindles, oocytes were incubated at 37° C. for around 14 and 15 h after NEBD. None of the oocytes used for immunofluorescence analyses was subjected to live imaging before fixation.
Time-lapse movies of live mouse, bovine and porcine oocytes, and fixed human and mouse spindles were analyzed in 3D using Imaris (Bitplane). To determine the stages of meiosis and to score for spindle instability, the timing of meiotic progression was quantified relative to the timing of NEBD. NEBD was defined as the time point when the sharp boundary between the nucleus and cytoplasm disappeared in the differential interference contrast image (for mouse oocytes) or when the nucleus started collapsing in the H2B channel (for bovine and porcine oocytes). Spindle poles were defined as regions of MAP4 or MAP4-MTBD or α-tubulin intensity that prominently protruded from the main microtubule mass. In FIG. 1D, oocytes with bipolar spindle, in which ends of all microtubules converged at the poles, were scored as having focused poles. […] For mouse oocytes, unfocused poles were further classified into mildly unfocused poles (with partially separated microtubule ends) and severely unfocused poles (with fully separated microtubule ends). In FIG. 4D, bovine and porcine oocytes, in which the spindle maintained a barrel-shaped bipolar morphology and a detectable spindle axis, were scored as having stable spindle poles. Oocytes, in which the spindle lost their initial bipolarity and underwent dynamic remodeling of the pole(s) were scored as having unstable spindle poles. […] Oocytes, in which the spindle had more than two poles, were scored as having multipolar spindle. In FIG. 1H, mouse oocytes, in which the spindle had two well-defined poles, were scored as having bipolar spindle. Mouse oocytes, in which the spindle had two poorly defined poles, were scored as having apolar/round spindle. Mouse oocytes, in which the spindle had more than two poles, were scored as having multipolar spindle. […] Mouse oocytes, in which the spindle lost its barrel shape but contains several weakly associated microtubule bundles, were scored as having disorganized spindle.

As for `COc1cc(Nc2ncc3c(n2)-c2ccc(Cl)cc2C(c2c(F)cccc2OC)=NC3)ccc1C(=O)O` [MLN8237], the “NUMA enrichment at the spindle poles” value in assay [1] was “increased NUMA enrichment at the spindle poles”.

B1: wild-type HSET: Wild-type HSET re-expressed from microinjected mClover3-HSET mRNA in KIFC1/HSET-depleted aMTOC-free mouse oocytes (protein)
chain: MDPQRSPLLEVKGNIELKRPLIKAPSQLPLSGSRLKRRPDQMEDGLEPEKKRTRGLGATTKITTSHPRVPSLTTVPQTQGQTTAQKVSKKTGPRCSTAIATGLKNQKPVPAVPVQKSGTSGVPPMAGGKKPSKRPAWDLKGQLCDLNAELKRCRERTQTLDQENQQLQDQLRDAQQQVKALGTERTTLEGHLAKVQAQAEQGQQELKNLRACVLELEERLSTQEGLVQELQKKQVELQEERRGLMSQLEEKERRLQTSEAALSSSQAEVASLRQETVAQAALLTEREERLHGLEMERRRLHNQLQELKGNIRVFCRVRPVLPGEPTPPPGLLLFPSGPGGPSDPPTRLSLSRSDERRGTLSGAPAPPTRHDFSFDRVFPPGSGQDEVFEEIAMLVQSALDGYPVCIFAYGQTGSGKTFTMEGGPGGDPQLEGLIPRALRHLFSVAQELSGQGWTYSFVASYVEIYNETVRDLLATGTRKGQGGECEIRRAGPGSEELTVTNARYVPVSCEKEVDALLHLARQNRAVARTAQNERSSRSHSVFQLQISGEHSSRGLQCGAPLSLVDLAGSERLDPGLALGPGERERLRETQAINSSLSTLGLVIMALSNKESHVPYRNSKLTYLLQNSLGGSAKMLMFVNISPLEENVSESLNSLRFASKVNQCVIGTAQANRK
modifications: left off: large carriers
notes: Wild-type HSET re-expressed from microinjected mClover3-HSET mRNA in KIFC1/HSET-depleted aMTOC-free mouse oocytes
Take B1: the “HSET to α-tubulin intensity ratio, more HSET loaded onto spindles with poorly focused poles” value in assay [2] (bipolar MI spindles rescued with wild-type HSET, FIG. 3I) is recorded as approximately 2 fold. The “spindle polarity (manual scoring)” value in assay [2] (endogenous KIFC1/HSET depleted by follicle RNAi, expression restored from mRNA, MI oocytes, FIGS. 3, G and H) is “assembled a bipolar spindle”. Besides, the “oocytes with a bipolar spindle but poorly focused poles that lacked NUMA” value in assay [2] (oocytes rescued with wild-type HSET, FIG. 3G) is “around 25%”.
